The values below come from paper PMC5648196, “The transcriptional regulator LysG (Rv1985c) of Mycobacterium tuberculosis activates lysE (Rv1986) in a lysine-dependent manner”.

Data set [1] deals with T1, LysG(Mt) (Mycobacterium tuberculosis) (UniProt P9WMF5).
T1 sequence: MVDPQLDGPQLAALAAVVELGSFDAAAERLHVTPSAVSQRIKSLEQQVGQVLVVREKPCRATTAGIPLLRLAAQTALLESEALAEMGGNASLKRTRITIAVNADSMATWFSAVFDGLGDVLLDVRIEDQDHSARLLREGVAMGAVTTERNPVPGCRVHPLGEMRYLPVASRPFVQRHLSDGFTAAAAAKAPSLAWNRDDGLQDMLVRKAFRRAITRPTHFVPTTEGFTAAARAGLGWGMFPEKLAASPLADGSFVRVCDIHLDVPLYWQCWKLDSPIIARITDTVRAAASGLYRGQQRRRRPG
The data set is described as follows: EMSA. Background: A gel shift assay detects complexes by their altered migration in electrophoresis.

The target in data set [2] is T2, LysG(Mt) (Mycobacterium tuberculosis, UniProt P9WMF5 1-303).
T2 sequence: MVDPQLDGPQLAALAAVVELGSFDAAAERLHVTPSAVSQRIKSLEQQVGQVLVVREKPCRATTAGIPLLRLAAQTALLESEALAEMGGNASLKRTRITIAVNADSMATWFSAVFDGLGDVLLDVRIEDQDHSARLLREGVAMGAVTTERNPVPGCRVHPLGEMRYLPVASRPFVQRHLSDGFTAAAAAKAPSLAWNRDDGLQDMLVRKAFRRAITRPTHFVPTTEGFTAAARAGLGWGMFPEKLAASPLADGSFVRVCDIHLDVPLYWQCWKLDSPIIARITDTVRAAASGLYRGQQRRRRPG
Briefly: EMSA; 200 pmole LysG, 10 fmole DNA. As to conditions: protein: recombinant, tags: His6 (pQE30-LysG(Mt)x6His), chain copies: 4, blunt.

“CGCTGCGGTCATTGTGTTCCTCTTAGTCGTTCCGAAAGTTGTTCCAACAACTCGGCTTCGGTCAGTTCGTGGTAGGAGTCGGTGGCTTGCTGGGTTGCGACTGCGGTTGCCCCAATTTCGAGGAGCTCAGGC (double strand) [oligonucleotide VII (ppsC upstream)]”: the binding entry in data set [1] is on record as “no binding”.

For “TTCAGACCGGCACGTTTCAGAGCGGTGGGGATGTCCCGACGTGCGATCCGACAGGGGTTCGCAGGGTCCGCAAAAAACATAGTGAACGCCAGAAAGCCGAATGGGAGTACAAGGCGATGCCGGT (double strand) [oligonucleotide V (fadD26 upstream)]”, the binding result in data set [1] is “no binding”.

B1: oligonucleotide IV (dsDNA)
DNA 1: CGCACTGCACATTAATAATGCTAATGTAAATGAAGAATTATTAGCTATACTGAC
DNA 2: GTCAGTATAGCTAATAATTCTTCATTTACATTAGCATTATTAATGTGCAGTGCG
Take B1: the binding result in data set [2] (label: 5'-biotin on reverse strand (838)) is listed as “binds”.

B2: oligonucleotide III (dsDNA)
DNA 1: AAATGAAGAATTATTAGCTATACTGACCCATACAAACTGCCTAGTGTCGATTGC
DNA 2: GCAATCGACACTAGGCAGTTTGTATGGGTCAGTATAGCTAATAATTCTTCATTT
B2: in data set [2] (label: 5'-biotin on reverse strand (836)), the binding result is recorded as “no binding”.

B3: oligonucleotide II (dsDNA)
DNA 1: CTCAGGTGTAGACCATCTGCGGAGCGTCGCACTGCACATTAATAATGCTAATGT
DNA 2: ACATTAGCATTATTAATGTGCAGTGCGACGCTCCGCAGATGGTCTACACCTGAG
Consider B3, for which, in data set [2] (label: 5'-biotin on reverse strand (834)), the binding result was “no binding”.
